Experimental findings from paper PMC6453127 (Biochimica et biophysica acta. General subjects, 2017) are described below.

The data set deals with the molecule itself. Briefly: cross-linking.

B1: His6-tagged Hsp90β CTD (530–724) (domain or fragment)
chain: not shown
Regarding B1, the binding result is “binds”.
